Measurements: the domain aggregation screens of Martell et al. (2025)

Assay: soluble fraction after stress (log2 fold change); higher = more stays soluble; pooled small domains, quantitative proteomics
Details: stress: 50 degC
How it was run: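 The stress applied to every library was 50°C. These custom libraries of small protein domains were pooled and measured at high throughput with quantitative proteomics as the read-out. Aggregation propensity is expressed as the base-two logarithm of the fold change in how much of each protein remains soluble. The higher the value, the more of that protein stays in solution.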

Sequence	soluble fraction (log2)
HMSTPERQEVLDILKRQGEMTPLQIAGQISRTSKSVSNILSKLKREGFVANGAKYGSWVSTES	0.0492
HMNVLGQTAIVRSLRLDATFGEVLLADGGAGLIFKARTHGDETFKKGDRVVLLEYLKDQHAYRVISETDFL	-1.94
HMEKAYVWTDTRTFDVQNYIGKKKSEVKNDQYGFEFLGEGDYVIDQLPRVGEQIEEGQKVKIMLGNQQEI	0.0468
HMIDSDENERIKELIKALISETLKSRGVSPEVISDIKERVDRLHNEELPRFAAELKELISRN	0.119
HMTVAEVEDRMEASRVRQALDAVGEPHRTTIALAYFTGLTHTEIAQRMGVPLGTVKSRIRDGMAKMRTHLG	-0.617
HMLSFSEAERAVLSLLNRRPDLSAKALASELAVSARTVERYLQSLQQKGKLLRVGAKKGGYWQV	-0.478
HMNNYEGIVKSVSNSNVYIQVAGRTIGYTISPHTIIMVNGKNVPASELMPGQHVSYTNKGSKLSYININS	-0.103
HMGIYDQAAAAYIEFVESKNRAPKWNELIDALYKENGKDWIDRSTLHGLLRRKEFQELLAQKRKEHLV	-0.184
HMAPFSGVEPREWDSLVERGRQSGEVHAEDVTHVLRHVELTGDVLTDVQSKMAEHGITIDDA	0.206
HMYDDEELDVLAHRPIESYTDAELAMLREVAETLLETDYEGWLKSLSMRGILLPPEILQLVT	-0.049
HMQNPDHLLALAAAAQAAIELGRPDEAEAYYRHLVEVYGVEMASQKPEYLDHSGITNDLRNVAEGFLVG	-0.746
HMEKTTTLFDETTNPGIIYIGKAMPTGSAISEAAAVWAIKTIDTTTDTEIKWADGVTTYTKVWNNRASYSY	-1.76
HMLPPLGDQELELLRFITESAPITVREAAESYGKDRGLARTTVLTMMERLRAKGYLTRSESGAANEYSP	-0.155
HMKMTFGENLHKLRKIYRLSQEDVASAINLKRSDIAAVEKGDRVLNDEELDKLADFIGIDIVDLL	-0.193
HMSENDTILAKFASIINNKSLELVIFPDTAYLKGQVSTPEDKARAETVAQSLLGSKPLISLIEFE	-0.0145
HMLQVSDENFVVELVQKVLLDNPSSVQEYKNGKESVLQFLIGQAMKASKGTANPQIVKEIMLKLL	-0.314
HMSLPALSAEEQKIVDALHGTPKGVDDIIAETGISSGALLRSLTMLELKKVIVRLPGNRIAPK	-0.128
HMPAQPEPYNNLARLYSAQGKLDQAASLLRAGLYTDPAYRALFDNLTRIYAEQAARSLSAALD	-0.907
HMGEWNSVFSVPSSVVDKHLKTASSVYVKVLLVILRNAGNRISDQQISEQLSVPVDEVQEAIRYWNAAGIF	-0.247
HMPIPIESEISRSPGQSIYAFVQQHYGRSGRSPADMRALVGLILRLNRQIRTPLLIPFGLVVVRPT	-0.0619
HMDLVIALNSRIRVIREPFFGKLGTVIDLPHKLHKMESGTMTRVAKIKFDDRTEEIIPRTNLEVILS	-2.69
HMSHFRMLPSITEADAFLKSRSLPAGLEVREQVDAFLAQARQTLALAQEAPWLSKQEVLETLADEFVQTS	-0.496
HMYQNRLFYTLKTGETVADLSKSQDINLSTIWSLNKHLYSSESEMMKAAPGQQIILPLKKLP	-0.105
HMELVEVGDLTGLTVEQAENVLKNSNISISIDKYDESDKYEKDQIISQNPQNKKVKKGTAIHVVLSNGP	0.0285
HMPAYYQKEAVLDGRASVFAYERDPSSWYFKQLIPGTKKYRTKKIQGATTLEQAKSQALDIALGLRDEP	0.0201
HMSRMGDSIKSLRSRNNMSQDALAEKLNVTRQAISNWENSKTQPDADTLKNLGIIFNVTVDEIINNDF	0.0528

Sequence	soluble fraction (log2)
HMASEVEVPNVYGMPSSLAERELSAVGLLADYRSRTGTGQQPGTVVHVKPDAGTVVSRGSTVVLFIA	0.00535
HMDDFPLKRGSKGNRVTLLQNALVKKYGAGILPKYGVDGMFGKEVEAALVHAKIPTTINEANYTKIV	0.0897
HMLFRGNGFNTLYDKQLRITQQGEFKDGRLWDGKYYRYSKAGELVRIEIYEQGRYAGNGVITDEDKA	-0.845
HMFEKIDINFADIHQLKGLPLNSEQINSIIEYRNQNGFIENIYDLKNVNGISIDKVHELKSYIFIIDV	-2.42
HMPLIPIAIELARHALPSLIGAIAGDKSEKVAKEVVDAALKTTGKTTPDEALHALQADPQLAHEYRLSLL	0.287
HMAGQWQQDQNGWKYKTDNGDHMKNTWYQDSDSRWYYFGPDGYMKSSTMTPDGYVVGSDGAWIE	-0.518
HMEGMQATVTQITDEGITVRYVMNGQMVTRTLTSDEVAFVNRGQAVSDLAGAYRVGQTVWIY	-0.0401
HMEDQVITQFNMRLIRAVMPQGAPMIVVYEDPKDYPGLFVARLFDGRKSTHLIALADTLEDI	-0.123
HMNTVSPAVSAQLRQELGGELNNANFQQLQQYLQAGQRDEAIVYLTSLGIESPRAVSIVNNAMDQIG	0.124
HMVTVSAVNITPKGHTTVGFTDRSVNPPSNYYLRVGESADGWTVKDADFDDEIATLEKDGVAITLKL	-0.0772
HMKIDNPEYQKIMDMIPYFFQTRNYDEAIEALSYVIEQEPSFSEAYNKRATFYFMMGDFENSMKDIESTLA	-0.155
HMRRDEDLAHGRELLEKELRKQGLEVSENLKQDKLLEGAKRLGFLEAEDLVVAVGSGKVSAGMAVGRIIG	0.16
HMDSISEQIYSIIKEEILLAKRKPGEQINPRKLADEFETSVMPIRDALNQLANEGLVIRKPRVGFFVR	0.0655
HMKELFETLPDVLDAKLLASALSISKAGAYQLLNRPDFPTLQVGGWKLVTKQKLALWMEQHTN	-3.21
HMEQLNKNIKFDNFLESLNFINKVSEVAEEENHHPDLKFGWGYADITIFTHAIKGLSEGDFVLAAKIDVI	0.269
HMGIQQNHMTLHARSVASSANVPAEHFDTLVEKLIESGDIKVWKAREILMNLSRQHEEILDES	0.0119
HMDPLGGFTKGDVDMDGRVAVNDAVMVLKNAIKLMELDTQQLMLADADNDGKITVNDAVMILKKAIKLID	-0.111
HMKKPIYLTIANDIEKKIFNNDYPKNERLPSERNLAEEYGVTRMTIRNSIEYLVSKGLLEKRLGSGNYVKR	-0.646
HMKFNRPMSEILQEWENKLGTTSDAELAGLIGVVTMTINRWRKNETKPDLSALNRYDRIVNLVVNNIKQL	-0.432
HMKNYYSILGVTPDSSEAEIKSAYRRLARKFHPDVNPDGASRFKDISEAYETLSDAKKRFQYDTINGF	0.107
HMQSYHVGDKVTIKNSASHWATGQSIYNGVKGHTYKIIQTNGHKLLLDQVISWINDGDVYKAGS	-0.492
HMALEGTLARVSVRIPESGVGEIIFSLGGVRRSEAARSVSGRAIPRGTEVVILSYERGIATVQPYEELLTN	0.013
HMQSLPFSFAKRHGVLLKSINHLHGEAVYRIGANPLSLSEVQRYAGVPLKLSSITVEKFDRLLQETYEHD	-1.14
HMSLIDLLQLNRKSKKLTLMNLVEMTGLSYGKVYRIFNGGIDKPTPDSLKLLAKALQLDYSYLFHKAGYL	-0.161
HMNEKLRNYIDTLFEHAPTTVRAVELKEEMFQNLTDKYNDLIAQGKSEEAAFNIAVASIGDVDSLIAGLS	0.219
HMTKEAIAQKLRIARQESGLTQKDVSAKIGRPQQTIASWEVGRSQPDADTLYSLLLLYKVSPNTFFEYD	-0.352

Sequence	soluble fraction (log2)
HMGELTSILVATKQIEPGETLSSSNTQVKSWISDLIPEGAITNPESVMGRTVSSVIGVGMPVVSLHLR	0.0954
HMVDKTMYDRYAVDDYVRVIDGPLVGTEGRIIELDRETGNVKIEAVFFGRVTTADINFALIEKVD	0.0531
HMEETAFEKLSPLQKLRALGKPLTMINMRDGSQIAGSVQRSDDKFLYLDTGDGIAKLPVEEILRRTPM	0.25
HMNLGDSLFHARRKQGLSQEAVAEQLGVSRQTVSKWEANETLPDIRQSKLMAKLYHTSLDELI	0.00427
HMEKGIVSNKTDKGYGFIRSSTGESIFVHINNVGKEAYEQLAKGSRVLFDYEVTDRGKRATKVMLEPSES	0.0488
HMSLIEQKSQIPLVQGGQRVDKVAAALFTDFSRAELTGWIQQGALTLDGAVVKPKYKVLGGEWLYLRASQS	-2.02
HMDGPELYESMKAIVPDQLDRTIFLTGGAYTPRAQEFLARVPNQQMEKPFEFEALRSLLARLT	0.0477
HMGTVKWFNATKGFGFIVPSDGGKDVFVHITAVQKAGLQGLNEGQKVSYEVAMERGKAAATNLR	-0.726
HMTSLVRTSNLDGFEPLARSIGVDPVMELMRFGIPPDALIRENMFISFIGFIRLLEHTALAG	0.103
HMQLTDSDFTRLYTYVKNSYGIDLSKKKQLISSRLTNMLIQQGYRDFTQYTDEIISGKNPEMVSAMLNRLT	-0.232
HMNHYTEEYILKRMKDFFTTHAYITRRDIESLFGFRRSYATKWLKHFRESGVLKQSGPVNSAVYLL	-2.83
HMDSGLLSAREREVAGLVLSGMTYAEIGEAIFISPRTAEHHIARIRRRLGATSRTDLIAKLQAIVGID	-3.45
HMGKEYERALQQVTKSEIDSDEKLQQQMDALVNSPRISDKEDAWALLLVKKLRNEGVEWDELPDVLSERVQ	0.0796
HMLTEKEEEVMQILWDNGPLFVREILEFYPDPKPHYNTVSTVIRVLEEKNFASHKAYGNTYQYFP	-0.0146
HMVRSLADQVYERLRRNIVSGDLAPNARIVELDIAAQMGTSQGPVREALQRLEREGLVQRRAHSATFVTD	-0.279
HMGSVVATLRKLIIDGHYPAGTRLAEIPVANALGVSRTPVRLAFRTLQQEGLLQTVGKRGIVVRAF	-1.21
HMTDITSAITRLNKYNKSGTPLTIDSVTPEALQTLQAKVSSAFEIGAVNQQTYDDVTKDIATLQQYLSSA	0.15
HMIDFIGLEAKLLSTISGEKMGNAEVIVDGNVMNIYVKSLDTSEIKFRENVLIIKQSDDKNYYLVAKP	-0.453
HMFLTDHEVSKVARKRAHAEYLSSLSWRQRTFGDHGERSKNFEAWYKEHSHLYETEKLYKELYKN	-0.567
HMNSKSDDELLSKTTSLLIHAAKIDENYTDKEKEIIKKTLIQLGVKESKADQIMLTAEINEE	≥ 0.62
HMDTGPISGQVEADRVEVHGHLDGKISAQNVVVGQTGVVKGDIEFGENLRTEEGADIEGYIK	-0.149
HMQAKDVEVPDYVGKSFVSIKENNPNDFKFEVKSEYDESKEMGVILDQEPKGGSMKVKSGSTITVTV	-0.0106
HMGLNLIGLKRSGFAPEEVKAMTRAYMYIFKSAEGNFESRLAKAHEKYKDDALIMEMVEFIDDALKG	-0.906
HMSSEYARFFSGNYYEVLGVAKNASYDEIKAAWKKLVKEYHPDLHPQRQEEFTKIIQKINEAYEYFKKMH	-0.0398
